Laboratory results published in patent publication US7166568B1, “Compositions and methods to inhibit formation of the C5b-9 complex of complement” (Oklahoma Medical Research Foundation, priority 1998, dated 2007).
Where a chain is given by its changes, count along the chain named. Entries after “also recorded” stand apart in the source; their conditions may differ. Non-standard residues stand in square brackets, D forms with d. No end group written: not given here. allyl‑C = allyl-modified terminal Cys; allyl‑K = allyl-modified terminal Lys

T1: hu CD59 (Homo sapiens, UniProt P13987)
T1 construct: human erythrocyte membrane glycoprotein CD59 were purified; from tissue; host or cells: human erythrocyte membranes
T1 sequence (P13987 26-102): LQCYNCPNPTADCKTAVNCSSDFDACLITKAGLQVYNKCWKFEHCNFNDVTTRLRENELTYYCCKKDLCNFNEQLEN

T2: human erythrocyte membrane glycoprotein CD59 (purified) (human, UniProt P13987 26-102, biotinylated with NHS-LC-biotin where used as biotin-CD59)
T2 construct: Purified from human erythrocyte membranes; Used as biotin-CD59 in the microplate assay and put back into chicken erythrocytes (chE) for the hemolytic assays; it may hold a C-terminal GPI signal that the purified protein lacks; also called hu CD59; biotin-CD59
T2 sequence: T1 sequence (P13987 26-102)

B1: BSA-conjugated hu C9 peptide 359-384 (peptide)
peptide: [allyl‑K]CLGYHLDVSLAFSEISVGAEFNKDD[allyl‑C]
modifications: also: coupled to BSA
notes: Synthetic peptide, custom ordered, adsorbed to microplates as a BSA conjugate; also called BSA-peptide conjugate
B2: Ch6R: rabbit 42–58 substituted in hu CD59 (protein)
chain: EQKLISEEDLNLQCYNCPNPTADCKTAVNCSSDFDACLITKAGLQVYNKCWKYEDCNFEFISNRLEENSLTYYCCKKDLCNFNEQLEN
B3: rb CD59: rabbit CD59 cloned by the applicant (GenBank AF040387), expressed recombinantly with TAG on SV-T2 cells (protein)
chain: EQKLISEEDLNSLMCYHCLLPSPNCSTVTNCTPNHDACLTAVSGPRVYRQCWRYEDCNFEFISNRLEENSLKYNCCRKDLCNGPEDDG
B4: Ch6: hu CD59 residues 42–58 substituted into rb CD59 (protein)
chain: B3 chain with Y54F, D56H, E60N, F61D, I62V, S63T, N64T, E67R, S70E
B5: hu CD59: Human CD59 antigen, 18–21 kDa plasma membrane protein, inhibitor of the C5b-9 membrane attack complex; expressed recombinantly with TAG (protein, UniProt P13987 26-102, looked up)
CD59 glycoprotein: T1 sequence (P13987 26-102)
modifications: TAG epitope tag

Columns and labels:
hu CD59 = target: T1, hu CD59; test: Inhibitory function of CD59 towards recombinant C9 constructs (hemolysis of C5b-8 chE with or without membrane CD59); assay type: cell-based; details: chE with hu C5b67 and rb C8, 0 or 750 ng/ml CD59; compared with hu C9 and rb C9
Procedure: (§1) Analysis of the inhibitory function of CD 59 towards recombinant C9 constructs—Hemolytic activity of each C9 construct was assayed using as target cells chE that were reconstituted with purified hu CD59, as described by Husler, et al., (1995). chE were washed extensively and suspended in GVBS, and the membrane C5b67 complex assembled by mixing cells (1.4×10^9/ml) with C5b6 (13 μg/ml) followed by addition of C7 (1 μg/ml). After 10 min., the C5b67 chE were diluted to 1.4×10^8/ml in GVBE and incubated (10 min. 37° C.) with 0 or 750 ng/ml CD59. In each case, the final concentration of Nonidet P-40 was less than 0.002% (v/v). After washing in ice-cold GVBE, 2.8×10^8 of these cells were incubated (37° C.) in a total volume of 100 μl with 1 ng rb C8 plus, between zero and 50 ng of recombinant C9, serially diluted in Opti-MEM I. Hemolysis was determined after 30 minutes at 37° C., with correction for nonspecific lysis, determined in the absence of C9. In each experiment, the inhibitory activity of CD59 towards each recombinant C9 construct was determined from the reduction in complement lysis of those cells reconstituted with CD59, versus the identically-treated cells omitting CD59, measured at the midpoint of the C9 titration (i.e., 50% hemolysis). In order to directly compare results obtained in experiments performed on different days, data for each recombinant C9 construct were normalized to results obtained in each experiment with hu C9.

[1] = system: chE containing membrane C5b-8; test: Hemolytic titration of recombinant C9 constructs against chE containing membrane C5b-8; assay type: cell-based, chicken
Procedure: as §1, with “In order to directly compare results obtained in experiments performed on different days, data for each recombinant C9 construct were normalized to results obtained in each experiment with hu C9.” left out

[2] = target: T2, human erythrocyte membrane glycoprotein …; test: microplate assay: BSA-peptide coated wells, biotin-CD59 detected with Vectastain, OD 405 nm; corrected with a 20-fold excess of unlabeled CD59
Procedure: Briefly, the BSA-peptide conjugate was adsorbed to 96 well polyvinyl microplates by overnight coating at 5 µg/ml in 0.1 M sodium bicarbonate, pH 8.5. After blocking with 1% (w/v) BSA, wells were washed and incubated (4 hrs., 37° C.) with between 0.5 and 1 µg/ml biotin-CD59. After washing, the bound biotin-CD59 was detected with Vectastain (Vector Labs, Burlingame, Calif.), developed by addition of p-nitrophenyl phosphate (2 mg/ml) and optical density recorded at 405 nm (VMaxMicroplate Reader, Molecular Devices, Inc.). In all experiments, correction was made for background adsorption of biotin-CD59 to BSA-coated wells (no peptide) and for nonspecific binding of biotin-CD59 to peptide, determined in the presence of a 20-fold excess of unlabeled CD59. As a positive control for specific binding, comparison was made in each experiment to wells coated with 2 µg/ml hu C9.

[3] = target: T3, hu C5b-9 (hu C5b67 with hu C8 and hu C9) (Homo sapiens, UniProt P02748+P07357); test: Assay of MAC inhibitory function of recombinant CD59 on transfected SV-T2 cells, hu C8 and C9; assay type: cell-based; details: for species-selective complement inhibitory function compared with full-length hu or rb CD59: SV-T2 clones, hu versus rb C8 and C9 used to assemble the C5b-9 complex; for MAC-inhibitory function towards hu C5b-9 (protection from lysis): CD59 construct expressed on SV-T2 cells, hu C5b67, 2 μM hu C8 and 5 μM hu C9, BCECF dye release
T3 construct: human complement proteins (C5b7, C8 and C9) and rabbit complement proteins C8 and C9 were purified; from tissue; host or cells: human serum/plasma (C8 and C9 purified; C5b67 deposited from C8-depleted human serum)
Procedure: (§2) Expression of CD59 constructs in SV-T2 cells—SV-T2 cells were transfected with hu, rb, or chimeric TAG-CD59 pcDNA3 by electroporation as previously described (Zhou, Q., Zhao, J., Hüsler, T., and Sims, P. J. (1996) Mol. Immunol. 33, 1127–1134). After 48 hr, stable transfectants were selected with DMEM complete medium containing 1 mg/ml geneticin for 10 days. If episomal replication in the transfected cells was desired, 8×10^6 SV-T2 cells were transfected with 120 μg plasmid DNA by electroporation using GENE PULSE™ (Bio-rad) at 360 V and 500 μF (Zhou, Q., Zhao, J., Hüsler, T., and Sims, P. J. (1996) Mol. Immunol. 33, 1127–1134). Geneticin-selected cells were stained with mAb 9E10 against TAG epitope followed by FITC-conjugated goat antibody against mouse IgG, and sorted by flow cytometry (FACStar Plus; Becton Dickinson). Individual clones were then obtained by limiting dilution in DMEM containing 0.5 mg/ml geneticin. Comparison was made to clonal cell lines derived by transfection with pcDNA3, lacking insert (vector-only controls).
Measurement of cell surface TAG-CD59—The cell surface expression of each TAG-CD59 construct in transfected SV-T2 cells was quantified by the binding at saturation of mAb 9E10 (against TAG epitope) as previously described by Zhou, Q., Zhao, J., Hüsler, T., and Sims, P. J. (1996) Mol. Immunol. 33, 1127–1134. Following growth to near confluence, cells were detached and incubated for 30 min at 23° C. with mAb 9E10 (100 μg/ml) in HBSS containing 1% BSA. After washing with HBSS containing 1% BSA, the cells were incubated (20 min at 23° C.) with FITC conjugated goat anti-mouse IgG at a final concentration of 10 μg/ml. The fluorescence was determined by flow cytometry (FACScan, Becton Dickinson) as described previously by Zhou, Q., Zhao, J., Hüsler, T., and Sims, P. J. (1996) Mol. Immunol. 33, 1127–1134.
Assay of MAC inhibitory function—The complement-inhibitory activity of recombinant CD59 expressed on the transfected SV-T2 cells was evaluated by minor modification of methods previously described (Zhou, Q., Zhao, J., Hüsler, T., and Sims, P. J. (1996) Mol. Immunol. 33, 1127–1134, and Zhao, J., Rollins, S. A., Maher, S. E., Bothwell, A. L., and Sims, P. J. (1991) J. Biol. Chem. 266, 13418–13422). For cell clones expressing each chimeric CD59 construct, huC5b67 was deposited on the plasma membrane and susceptibility to the lytic activity of either hu C8 and C9 or rb C8 and C9 was measured and compared to identically-treated clones expressing wild-type hu or rb CD59. […] MAC-mediated cell lysis was determined from the measured release of BCECF dye from the cytoplasm, with correction for non-specific dye leak from matched controls omitting C8 and C9, as previously described by Zhou, Q., Zhao, J., Hüsler, T., and Sims, P. J. (1996) Mol. Immunol. […]

[4] = target: T4, C5b-9 assembled from rb C8 and C9 (Oryctolagus cuniculus, UniProt P48747+P98136); test: Assay of MAC inhibitory function of recombinant CD59 on transfected SV-T2 cells, rb C8 and C9; assay type: cell-based, rabbit; details: CD59 construct expressed on SV-T2 cells; hu C5b67, 4 μM rb C8 and 5 μM rb C9; BCECF dye release
T4 construct: rabbit complement proteins C8 and C9 were purified; from tissue; host or cells: rabbit serum/plasma (C8, C9); C8-depleted human serum (C5b67)
Procedure: as §2, with “Comparison was made to clonal cell lines derived by transfection with pcDNA3, lacking insert (vector-only controls).” left out
Measurement of cell surface TAG-CD59—The cell surface expression of each TAG-CD59 construct in transfected SV-T2 cells was quantified by the binding at saturation of mAb 9E10 (against TAG epitope) as previously described by Zhou, Q., Zhao, J., Hüsler, T., and Sims, P. J. (1996) Mol. Immunol. […] The fluorescence was determined by flow cytometry (FACScan, Becton Dickinson) as described previously by Zhou, Q., Zhao, J., Hüsler, T., and Sims, P. J. (1996) Mol. Immunol. […]

Row | Molecule | sensitivity of the C9 construct to inhibition of MAC lytic activity by membrane CD59 (hu CD59) | other results
1 | Mutant hu C9: recombinant hu C9 expressed with Ala substitutions at Cys359 and Cys384 | did not significantly affect | hemolytic activity of the C9 construct [1]: did not significantly affect
2 | chimera #1: hu/rb C9 chimera R1-338H334–415R425–536 | indistinguishable from hu C9 in its sensitivity to inhibition by CD59 | –
3 | chimera #2: hu/rb C9 chimera R1-363H359–538 | unaffected | –
4 | chimera #3: hu/rb C9 chimera H1-357R363–536 | indistinguishable from rb C9 and only weakly inhibited by CD59 | –
5 | chimera #4: hu/rb C9 chimera R1-363H359–415R425–536 | indistinguishable from hu C9 | –
6 | chimera #5: hu/rb C9 chimera R1-363H359–391R401–536 | conferred full recognition by CD59 | –
7 | chimera #6: hu/rb C9 chimera R1-400H392–415R425–536 | failed to confer any recognition by CD59 | –
8 | chimera #7: hu/rb C9 chimera R1-363H359–384R394–536 | small but significant reduction in inhibition of MAC lytic activity by CD59 | –
9 | chimera #8: hu/rb C9 chimera H1-333R339–424H416–538 | indistinguishable from rb C9 and virtually unaffected by the presence of membrane CD59; also recorded: completely eliminated hu-selective interaction with CD59 | –
10 | chimera #9: hu/rb C9 chimera H1-357R363–424H416–538 | did not completely eliminate interaction with CD59 | –
11 | chimera #12: hu/rb C9 chimera H1-357R363–393H385–538 | did not significantly diminish CD59's capacity to inhibit the lytic activity of C9 | –
12 | B1 | – | binding result [2]: binds
13 | B2 | – | species-selective complement inhibitory function compared with full-length hu or rb CD59 [3]: functionally indistinguishable from rb CD59
14 | B3 | – | MAC-inhibitory function towards C5b-9 assembled with rb C8 and C9 (protection from lysis) [4]: conferred a selective resistance to lysis by C5b-9 assembled from rb C8 and C9; MAC-inhibitory function towards hu C5b-9 (protection from lysis) [3]: virtually no inhibition of the lytic action of MAC was observed
15 | B4 | – | species-selective complement inhibitory function compared with full-length hu or rb CD59 [3]: functionally indistinguishable from native hu CD59
16 | B5 | – | MAC-inhibitory function towards C5b-9 assembled with rb C8 and C9 (protection from lysis) [4]: protective effect of hu CD59 was not observed; MAC-inhibitory function towards hu C5b-9 (protection from lysis) [3]: nearly completely protected from lysis by hu C5b-9
